Assays:
[1] = molecular target: Bluetongue virus (BTV) membrane penetration outer-layer protein VP5, as trimer on the virion (bluetongue virus (BTV)); assay: […]
[2] = molecular target: Bluetongue virus (BTV) membrane penetration outer-layer protein VP5, as trimer on the virion (bluetongue virus (BTV)); assay: cryo-EM structure
[3] = molecular target: Bluetongue virus (BTV) middle-layer core protein VP7, as trimer on the virion (bluetongue virus (BTV)); assay: cryo-EM structure
[4] = molecular target: Bluetongue virus (BTV) receptor-binding outer-layer protein VP2, as trimer on the virion (bluetongue virus (BTV)); assay: cryo-EM structure

For “Bluetongue virus (BTV) membrane penetration outer-layer protein VP5, as trimer on the virion (natural protein)”, the stoichiometry N [1] was 3 and the stoichiometry N [2] was 3.
“Bluetongue virus (BTV) middle-layer core protein VP7, as trimer on the virion (natural protein)” gave a stoichiometry N [3] of 3.
Substance “Bluetongue virus (BTV) receptor-binding outer-layer protein VP2, as trimer on the virion (natural protein)” has a stoichiometry N [4] of 3.
